From patent US20230235047A1 (Innovent, published 2023) come the findings set out here.

The target of test [1] is T1, human CLDN18.2 on cells (CHO-hCLDN18.2, HEK293-hCLDN18.2, KATO III-hCLDN18.2, DAN-G-hCLDN18.2, NUGC-4) (human, UniProt P56856-2 1-261).
T1 construct: whole, on cells; NUGC-4 is used untransfected; also called human Claudin18.2
Description: flow cytometry (FACS) on CHO-hCLDN18.2 cells, MFI against Log[Conc.(nM)]; EC50 from the table under the plot. Here is the method:
(§1) The binding of each of the above 9 antibodies to the CHO-S cell lines stably transfected with human CLDN18.2 and human CLDN18.1 (i.e., CHO-hCLDN18.2 and CHO-hCLDN18.1 prepared as described in the Examples) obtained in Example 1 was determined by flow cytometry (FACS). Reference was made to Example 2 for the experimental methods. The experimental data were analyzed using GraphPad Prism software, and FIGS. 1 and 2 were obtained.
(In general: In flow cytometry, cells or beads pass a laser one at a time.)

Test [2] has as its target T2, human CLDN18.1 on cells (CHO-hCLDN18.1) (human, UniProt P56856 1-261).
T2 construct: whole, on cells; also called human Claudin18.1
The test can be described thus: flow cytometry (FACS) on CHO-hCLDN18.1 cells. As to the method: as §1

For test [3], the target named is T3, human Claudin18.2 protein (P50251802, GenScript) (human, UniProt P56856-2 1-261, limits assumed).
T3 construct: also called human CLDN18.2
Description: BLI (Fortebio Octet Red96), AHC sensor, antibody and human Claudin18.2 protein (GenScript). Here is the method: The equilibrium dissociation constant (KD) for binding of the antibodies of the present invention to human CLDN18.2 was determined by bio-layer interferometry (BLI). A BLI affinity assay was conducted according to the existing method (Estep, P et al., High throughput solution based measurement of antibody-antigen affinity and epitope binding. MAbs, 2013.5(2): p. 270-8). The AHC (18-5060, Fortebio) sensor was soaked in SD buffer (lx PBS, BSA 0.1%, Tween-20 0.05%). 100 μL of SD buffer, each antibody and human Claudin18.2 protein (P50251802, GenScript) were added to a 96-well black polystyrene half-area microplate (Greiner, 675076), respectively. The detection was performed using Fortebio Octet Red96, and the KD values were analyzed using Fortebio Octet analysis software.
On the technique in general: BLI is a label-free optical method that tracks binding on a fibre tip over time.

Test [4] addresses T1, human CLDN18.2 on cells (CHO-hCLDN18.2, …). Description: flow cytometry (FACS) on CHO-hCLDN18.2 cells, MFI against Log[Conc.(nM)]; EC50 from the table under the plot. As to the method:
as §1
The source holds these as a separate data set.

Test [5] has the same target. Described as above. Here is the method:
as §1
The source holds these as a separate data set.

The target of test [6] is T3, human Claudin18.2 protein (P50251802, …). The test can be described thus: SPR (Biacore T200), human Claudin18.2 amine-coupled to the chip, antibody 0-100 nM in the mobile phase, 1:1 model. As to the method:
According to the manufacturer's instructions, human Claudin18.2 (GenScrip, P50251802) was coupled to the surface of a CMS chip (GE Healthcare, 29-1496-03) using the amino coupling kit (GE Healthcare, BR-1006-33), and the remaining activation sites were blocked by injection of 1 M ethanolamine after coupling. According to the manufacturer's instructions, the binding and dissociation between the antigen on the chip surface and antibodies in the mobile phase were determined by Biacore (GE Healthcare, T200) to obtain affinity and kinetic constants. The antibodies (0-100 nM) after gradient dilution flowed over the chip surface in an order from low to high concentrations, with the binding time of 180 s and the dissociation time of 600 s. Finally, the chip was regenerated using 10 mM Glycine pH 1.5 (GE Healthcare, BR-1003-54). Kinetic analysis of the data results were performed using Biacore T200 analysis software with a 1:1 binding model.
(In general: Surface plasmon resonance follows binding to a sensor surface in real time, without labels.)

In test [7] the target is T1, human CLDN18.2 on cells (CHO-hCLDN18.2, …). Description: flow cytometry (FACS) on KATO III-hCLDN18.2 cells, MFI against Log[Conc(nM)]; EC50 from the table under the plot. Here is the method:
(§2) Referring to Example 4, the binding of the two antibodies to each of the gastric cancer cell line NUGC-4, the gastric cancer cell line KATO III-hCLDN18.2 and the pancreatic cancer cell line DAN-G-hCLDN18.2 was determined by FACS.

The target is the same in test [8]. Description: flow cytometry (FACS) on the gastric cancer cell line NUGC-4, MFI against Log[Conc(nM)]; EC50 from the table under the plot. Here is the method:
as §2

The target is the same in test [9]. Description: flow cytometry (FACS) on DAN-G-hCLDN18.2 cells, MFI against Log[Conc (nM)]; EC50 from the table under the plot. Here is the method: as §2

Changes are numbered by the printed parent chain.

B1: 46F6 (antibody, human IgG1, kappa, V domains shown)
VH: QVQLKESGPGLVAPSQSLSITCTVSGFSLTDYGVSWIRQPPGKGLEWLGVMWGGGNTYYNSALKSRLSISKDNSKSQVFLKMNSLQSDDTAMYYCAKQRYGGNAMDYWGQGTSVTVSS
VL: DIQMTQSPSSLTVTAGEKVTMSCKSSQSLLNSGNQRNYLTWYQQIPGQPPKLLIYWASTRESGVPNRFTGSGSGAEFTLTISSVQTEDLAVYYCQNSYFYPFTFGAGTKLELKR
The EC50 is the concentration giving half of the maximal effect. Read a high EC50 as lower potency in that assay. A word on the Kd: it is the equilibrium constant for the complex coming apart. Read a low Kd as a tighter complex. For the molecule B1, the EC50 in test [1] was 5.41 nM. The binding result in test [2] was “no binding”. Further, the Kd in test [3] turned out to be 0.732 nM.

B2: Positive control antibody Zmab (zolbetuximab) (antibody, human IgG1, kappa, V domains shown)
VH: QVQLQQPGAELVRPGASVKLSCKASGYTFTSYWINWVKQRPGQGLEWIGNIYPSDSYTNYNQKFKDKATLTVDKSSSTAYMQLSSPTSEDSAVYYCTRSWRGNSFDYWGQGTTLTVSS
VL: DIVMTQSPSSLTVTAGEKVTMSCKSSQSLLNSGNQKNYLTWYQQKPGQPPKLLIYWASTRESGVPDRFTGSGSGTDFTLTISSVQAEDLAVYYCQNDYSYPFTFGSGTKLEIKR
In the case of B2, the EC50 in test [1] was 3.12 nM; in test [4], 3.31 nM; in test [5], 3.46 nM. Further, the dissociation constant Kd in [3] was found to be 2.14 nM.

B3: 38F8 (antibody, human IgG1, kappa, V domains shown)
VH: EVQLVESGGGLVKPGGSLKLSCAASGFSFSDYGMHWVRQAPEKGLEWIAYINSGSRTLYYADTVKGRFTISRDNAKNTLFLQMTSLRSEETAMYYCTRNAYYGNAMDYWGQGTSVTVSS
VL: B2 VL with V3Q, K36R, K45I, A57S, E61G, Y93F, D97V, S99Y, K109R, I112V
For B3, the EC50 in [4] came to 5.88 nM. Moreover, the binding result in test [2] is on record as “no binding”. Also, in [3], the Kd was determined as 1.03 nM.

B4: 69H9 (antibody, human IgG1, kappa, V domains shown)
VH: EVQLQQSGPELMKPGASVKISCKATGYSFSSYNIHWVKQSHGKSLEWIGYIAPFNGDSRYNQKFKGKATVTVDKSSSTAYMHLSSLTSEDSAVYYCGRLNRGNSLDYWGQGTSLTVSS
VL: B2 VL with L30F, K36R, V91F, D97N, S99I, F102L, S106A, I112L
Molecule B4 registered an EC50 in test [1] of 5.36 nM. The binding result in [2] was “no binding”. The molecule also registered a Kd in test [3] of 0.946 nM.

B5: Hz69H9 (antibody, human IgG1, kappa, V domains shown)
VH: QVQLVQSGAEVKKPGSSVKVSCKASGYSFSSYNIHWVRQAPGQGLEWMGYIAPFQGDSRYNQKFKGRVTITADKSTSTAYMELSSLRSEDTAVYYCARLNRGNSLDYWGQGTLVTVSS
VL: DIVMTQSPDSLAVSLGERATINCKSSQSLFNSGNQRNYLTWYQQKPGQPPKLLIYWASTRESGVPDRFSGSGSGTDFTLTISSLQAEDVAVYYCQNNYIYPLTFGGGTKVEIKR
Usually koff stands for the first-order rate constant of dissociation. A high value points to a short-lived complex. Usually kon stands for the second-order rate constant of association. The low end stands for slower complex formation, the high end for faster complex formation. B5: in [6], the Kd is 0.299 nM, the koff was found to be 0.000116 s⁻¹ and the kon was 387000 M⁻¹ s⁻¹. In test [7], this molecule returned an EC50 of 3.25 nM. For the same molecule, the response in test [8] was half-maximal at 2.2 nM (EC50). The molecule further registered an EC50 in test [9] of 1.79 nM.

B6: HB37A6 (fully human antibody) (antibody, human IgG1, kappa, V domains shown)
VH: EVQLLDSGGGLVQPGGSLRLSCAASGFTFSSYVMSWVRQAPGKGLNWVSTISHSGGSTYYADSVKGRFTISRDNSKNTLYLQMNSLRAEDTAVYYCAIDAPYYDILTGYRYWGQGTLVTVSS
VL: not shown
Consider B6, for which the Kd came to 0.72 nM in test [6] and 0.326 nM in test [3]. Moreover, in test [6], the koff worked out at 0.000306 s⁻¹. The molecule also showed a kon in test [6] of 425000 M⁻¹ s⁻¹. For the same molecule, the EC50 was 0.569 nM in [7], 5.51 nM in [4], 1.08 nM in [8] and 0.958 nM in test [9]. Besides, the binding result in test [2] is given as “no binding”.
